This data set in a line: yeast display, Sf9 membrane polyspecificity reagent, FACS + sequencing; frameworks hold sequencing errors. In outline:
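Polyreactivity labels are assigned by the sorting gate from which each nanobody was recovered. The gates were low and high (top ~1%), set on anti-HA fluorescence for expression and streptavidin fluorescence for reagent binding. Before sorting, galactose-induced (36–48 hours) yeast display cells were stained for 1 hour at 4 °C with 10% biotinylated, detergent-solubilized Sf9 membrane reagent.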
Turning to “QVQLVESAAGLVQAGGSLRLSCPASARILRYYAMGWYRQAPGKERELVAAISPRGGRTYYADSVKGRFTISRDNAKNTVYLQMNSLKPEDTAVYYCASPGYFTTPSGSYDYWGQGTQVTVSS”, the “polyreactivity (PSR sort gate)” value was “high polyreactivity”.

For the sequence “QVQLVESAAGLVQAGGSLSLSCAASGSILQSYAMGWYRQAPGKERELVAAISGSGGSTYYADSVKGRFTISRDNAKNTVYLQMNSLKPEDTAVYYCAKGPRYRTSRGEFGYWGQGTQVTLSS”, the “polyreactivity (PSR sort gate)” value is “low polyreactivity”.

Turning to “QVQLVESAARLVQAGGSLRLSCAASGFTFKKYAMGWYRQAPGKARELVASITWSGGSTSYADSVKGRFTISRDTAKNTVYLLMNSLKPEDTAVYYCAAATFVYRLRYNRFDYWGQGTQETVSS”, the “polyreactivity (PSR sort gate)” value was “high polyreactivity”.

As for “QVQLVESAGALVQAGGSLRLSCAASGSTYWRYTMGWYRQAPGKERELVAAISTRGGSTTYADSVKGRFTISRDNAKNTVYLQMNSLKPEDTAVYYCAAGRQYRFDFWGQGTQVTVSS”, the “polyreactivity (PSR sort gate)” value is recorded as “high polyreactivity”.

Take “QVQLVESAGGLFQAGGSLRLSCAASGRIFGWNAMGWYIQATGKESELDAVITSGGITYYADSVKGRFTISPDNAKNTVCLQMISLKPEDTAVYYCAARGTEFYTYYRYYYWGQGTKVTVSS”: the “polyreactivity (PSR sort gate)” value is “high polyreactivity”.

For the sequence “QVQLVESAGGLVQAGGRLRLSCPPSGSTFAYNAMGWYRPEPGKERELVADITSGGSTKYADSVKVRFTISRDNAKNTVFLQMNSLKPEDTAVYYCAAVSVISGDFNYWGQGTEVTVSS”, the “polyreactivity (PSR sort gate)” value is recorded as “low polyreactivity”.

For the sequence “QVQLVESAGGLVQAGGRLSLSCAASGRTYKKYAMGWYRPEPGKERELVAAITGSGGSTYYADSVKGRFTISRDNAKNTVYLQMNSLKPEDTAVYYCAAYAYGVWDSQDGGNYWGLGTQVTVSS”, the “polyreactivity (PSR sort gate)” value is “low polyreactivity”.

As for “QVQLVESAGGLVQAGGSHRLSCAASVLIFRYYAMGWFRQAPGKEWELFAAISNSGGGTYYADSVKGRFTISRDNAKNTVYLLMNSLIPVDTAVYYCAARHAFCFRFVSWGLGTQVTVSS”, the “polyreactivity (PSR sort gate)” value is “high polyreactivity”.

On to “QVQLVESAGGLVQAGGSISLSCAASGIIFRYYAMGSYRQAPGKERELVAVITGRGGGTYYADSVKGRFTISRDNAKNTVYLQMNSLKPEDTAVYYCAKDFTGHYPKGFDYWGQGTQVTVSS”, for which the “polyreactivity (PSR sort gate)” value was “low polyreactivity”.

In the case of “QVQLVESAGGLVQAGGSLRISCAASGRNFSTNAMGWYRQAPGKEMELVAAITSRGGSTYYADSVKGRFTISRDNAKNTVYLQMNSLIPEDPAVYYCAVDPLYYKTHYGTLGYYYWGQGTQVTVSS”, the “polyreactivity (PSR sort gate)” value was “low polyreactivity”.

In the case of “QVQLVESAGGLVQAGGSLRITCAASGINFTFYTMGWYRQAPGKERELVAAITWSGGSTNYADSVKGRFTISRDNAKNTVYLQMNSLKPEDTAVYYCAAQGYPQSPPWEDYWGQGTQVTVSS”, the “polyreactivity (PSR sort gate)” value is “low polyreactivity”.

Take “QVQLVESAGGLVQAGGSLRLICAASGRTTPIYALGWYRQAPGKERELVASITRGTRTNYADSVKGRFTISRDNAKTTVYLQMNSLKPEDTAVYYCAAVSYSYSLNPYDYWGQGTQVTVSS”: the “polyreactivity (PSR sort gate)” value was “low polyreactivity”.

For “QVQLVESAGGLVQAGGSLRLICAASGSNFRRYAMGWYRQAPGKERELVAAITENTTSTNYADSVKGRFTISRDNAKNTVYLQMNSLKPEDTAVYYCAAETFATSGEMYYWGQGTQVTVSS”, the “polyreactivity (PSR sort gate)” value is given as “low polyreactivity”.

For “QVQLVESAGGLVQAGGSLRLICADSGSIFSNDAMGWYTQAPGKERELVAAITNGVSTNYADSVKGRFTISRDNAKNTVYLPMNSLIPEDTAVYYCAAVSRSYYNSYNYWGQGTQVTVSS”, the “polyreactivity (PSR sort gate)” value is “high polyreactivity”.

“QVQLVESAGGLVQAGGSLRLSCAASGFIINKYTMGWYRQAPGKERELVAAITWSGGTTYYADSVKGRFTISRDNAKNTVYLQMNSLKPEDTAVYYCAAYYYRGRVGAYDYWGQGTQVTVSS”: the “polyreactivity (PSR sort gate)” value is reported as “high polyreactivity”.

In the case of “QVQLVESAGGLVQAGGSLRLSCAASGFTFGKNSMGWYRQAPGKERELVAAISGSGSRTYYADSVKGRFTISRDNAKNTVYLQMNSLKPEDTAVYYCAAAVTGSYASDYWGQGTQVTVSS”, the “polyreactivity (PSR sort gate)” value is on record as “high polyreactivity”.

(Values after the nanobody polyreactivity screen of Harvey et al. (2022).)
